{"source": "patent US9758785B2", "about": "“miR-520 microRNAs sensitize cancers to platinum-based therapy” (BAYLOR COLLEGE OF MEDICINE, priority 2012, dated 2017)", "key": {"[1]": {"tested_on": "UPSC Ark1 cells", "experiment": "Cisplatin dose response in uterine cancer cells stably transfected with lentiviral vector", "format": "cell-based", "conditions": "UPSC Ark1 cells expressing miR-520h vs non-targeting miRNA control", "method": "UPSC Ark1 cells stably transfected with lentiviral vector driving the expression of either miR-520h or a non-targeting miRNA control were incubated with increasing concentrations of cisplatin."}, "[2]": {"tested_on": "established ovarian cancer cell lines", "experiment": "Proliferation or apoptosis in established ovarian cancer cell lines after mimic transfection", "format": "cell-based, human", "conditions": "mimics vs control cultures; cell lines SKOV4, HEY, OVCAR8, OVCAR5", "method": "Established ovarian cancer cell lines were obtained from the ATCC (OVCAR8, OVCAR5) and the University of Texas M.D. Anderson Cancer Center (HEYA8, SKOV3ip1). All cell lines were maintained at 37° C. in RPMI 1640 media (Invitrogen, Carlsbad, Calif.) supplemented with 10% fetal bovine serums (Hyclone, Logan, Utah) and 1% penicillin/streptomycin (Gibco, Carlsbad, Calif.). MicroRNA mimics and mimic controls (Dharmacon, Lafayette, Colo.) were transiently transfected into actively growing cultures using Lipofectamine 2000 (Invitrogen, Carlsbad, Calif.). After a 24-hour incubation, transfected cultures were washed, passaged and seeded into 96 well plates. Proliferation and apoptosis were measured at 72, 96 and 120 hours after transfection using standard assays (Cell Titer 96 Aqueous One; Caspase Glo 3/7; Promega, Madison, Wis.). pLemiR expression vectors (Open Biosystems/Thermo, Huntsville, Ala.) were prepared according to manufacturer's instructions and transfected into cells using Fugene 6 (Roche, Indianapolis, Ind.). Following transfection, stable clones were selected using puromycin (Invitrogen) at doses optimized for each line. […] Viability was assessed across a clinically relevant range of cisplatin concentrations using an MTS assay (Promega). […]"}, "[3]": {"tested_on": "phopho-CHK2 (T68)", "experiment": "Western blot of phospho-CHK2 in OVCAR8 cells", "format": "cell-based, human", "conditions": "OVCAR8 with cisplatin", "method": "(§1) Whole cell lysates equivalent to 30 μg of protein were resolved on 4-12% gradient SDS-PAGE. Resolved proteins were transferred onto PVDF membranes using the iBlot system (Invitrogen). Rabbit polyclonal and/or mouse monoclonal antibodies specifically recognizing ATM, phospo-ATM (Ser1981) CHK1 phospho-CHK1 (Ser216), p21, phospo-CHK2 ([…]), BCL2, XIAP, CDC25A were obtained from Cell Signaling Technologies (Danvers, Mass.). A rabbit polyclonal antibody recognizing FANCD2 was also purchased from Abcam (Cambridge, Mass.). Protein expression was visualized using species-specific, horseradish peroxidase-conjugated secondary antibody (Cell Signaling) and ECL Plus chemiluminescent substrate (Amersham, Buckinghamshire, UK)."}, "[4]": {"tested_on": "CDC25c", "experiment": "Western blot of CDC25c in OVCAR8 cells", "format": "cell-based, human", "conditions": "OVCAR8, particularly when exposed to cisplatin; listed as miR-520g/h", "method": "as §1"}, "[5]": {"tested_on": "OVCAR8 xenografts", "experiment": "Survival and tumor response of xenografted mice treated with cisplatin", "format": "in vivo", "method": "Permission to perform animal experiments was obtained from the Institutional Animal Care and Use Committee (IACUC) for Baylor College of Medicine. Eight-week female athymic (Foxn1^nu/nu) mice were purchased from the National Cancer Institute-Charles River and maintained on a standard diet ad lib. Each animal was inoculated intraperitoneally with 2.5×10^6 cells stably transfected with vector driving miR-520h, a non-targeting miRNA control or empty vector. Expression of miR-520h was measured in cell lines using Taqman assays immediately prior to inoculation. Tumor xenografts were followed weekly for tumor progression or regression using the Image Station In-Vivo FX system (Kodak Molecular Imaging Systems, New Haven, Conn.) using endogenous RFP encoded by the pLemiR vector as a tag. At each time point, mice were anesthetized with isoflurane and placed in an imaging chamber, after which, fluorescent intensity images with x-ray overlay were obtained and analyzed. At the completion of the study, mice were euthanized after sedation under isoflurane (Abbott Laboratories, North Chicago, Ill.). For experiments involving treatment, cisplatin was administered at 5 mg/kg to mice by tail vein injection weekly for 4 weeks, after which, 1.5 mg/kg was administered biweekly. Tumor volume and distribution for all animals in each experiment were documented and correlated with imaging results.\nTo determine whether expression of miR-520h impacted responses of ovarian cancer xenografts to systemically administered chemotherapy, the inventors inoculated Fox1nu/nu mice with 4×10^6 OVCAR8 cells stably expressing either miR-520h mimic, a non-targeting mimic control or empty vector. Once tumor implants were readily palpable, weekly administration of cisplatin equivalent to a dose of 5 mg/kg was initiated and given weekly for a total of 4 weeks. This course of treatment was specifically used to mimic the typical course experienced by women undergoing treatment for this illness. […] This observation is consistent with a sensitization of ovarian cancer cells to cisplatin by miR-520h mimic. Cisplatin was continued approximately biweekly at a reduced dose of 1.5 mg/kg until disease progression requiring euthanasia of animals by IACUC criteria. […] In contrast, median survival for animals xenografted with OVCAR8 cells stably transfected with empty vector or OVCAR8 cells stably expressing non-targeting microRNA control was 79 days and 90 days, respectively."}}, "note": "Entries after “also recorded” stand apart in the source; their conditions may differ."}
{"molecule": "hsa-mir-520h MI0003175 (nucleic acid, listed as Homo sapiens, expressed or natural sequence, synthetic mimic or stably expressed from pLemiR vector; written miR-520g/h interchangeably) UCCCAUGCUGUGACCCUCUAGAGGAAGCACUUUCUGUUUGUUGUCUGAGAAAAAACAAAGUGCUUCCCUUUAGAGUUACUGUUUGGGA", "values": [{"measurement": "Reduction of IC50 for cisplatin", "setting": "[1]", "result": "more than 90%"}, {"measurement": "Impact on proliferation or apoptosis", "setting": "[2]", "result": "significantly impacted"}, {"measurement": "phospho-CHK2 (T68) level", "setting": "[3]", "result": "increased levels"}, {"measurement": "CDC25c and phospho-CDC25c protein level", "setting": "[4]", "result": "much lower; also recorded: decreased levels"}, {"measurement": "Mean survival", "setting": "[5]; 4×10^6 OVCAR8 cells, cisplatin 5 mg/kg weekly 4 weeks then 1.5 mg/kg biweekly", "result": 114, "unit": "days"}, {"measurement": "Mean survival", "setting": "[5]; biweekly maintenance IV regimen of 5 mg/m^2 cisplatin", "result": 130, "unit": "days"}, {"measurement": "Xenograft response to cisplatin regimen", "setting": "[5]; cisplatin 5 mg/kg weekly for 4 weeks", "result": "nearly complete elimination of disease"}, {"measurement": "Increase in survival vs empty vector control", "setting": "[5]; cisplatin-treated xenografted animals", "result": "~44", "unit": "%"}, {"measurement": "Median survival", "setting": "[5]; mice xenografted with 2.5×10^6 OVCAR8 cells expressing the mimic, cisplatin doses, controls 90 and 79 days", "result": 113, "unit": "days"}, {"measurement": "Implant size at necropsy", "setting": "[5]; vs non-targeting mimic control or empty vector", "result": "significantly smaller"}]}
